Results: PMC7802242, “The nuclear lamina is a hub for the nuclear function of Jacob” (Molecular Brain, 2021)

Experiments:
[1] = molecular target: T1, untagged-CRM1 (human, UniProt O14980 1-1071); test: pull-down; amylose-MBP matrix alone or coupled with MBP-Jacob proteins, washed in 20 mM Tris pH 7.5, 1 mM DTT, 3 mM EDTA, 100 mM NaCl, 0.3% TritonX-100; incubated with 20 μg of untagged LaminB1 or untagged CRM1 overnight at 4 °C; Western blot; conditions: both partners purified
T1 construct: CRM1 (Exportin 1), human, subcloned from 3xFLAG-hCRM1 into the Intein-pMXB10 vector between NdeI and XhoI; Cloning through the XhoI site may leave a few vector residues at the C-terminus after the intein is cut off (surmise); also called recombinant CRM1; CRM1 (PMXB10); source: E. coli ExpressLysY/Iq, purified (chitin resin, released with 50 mM DTT)
T1 sequence (O14980 whole entry): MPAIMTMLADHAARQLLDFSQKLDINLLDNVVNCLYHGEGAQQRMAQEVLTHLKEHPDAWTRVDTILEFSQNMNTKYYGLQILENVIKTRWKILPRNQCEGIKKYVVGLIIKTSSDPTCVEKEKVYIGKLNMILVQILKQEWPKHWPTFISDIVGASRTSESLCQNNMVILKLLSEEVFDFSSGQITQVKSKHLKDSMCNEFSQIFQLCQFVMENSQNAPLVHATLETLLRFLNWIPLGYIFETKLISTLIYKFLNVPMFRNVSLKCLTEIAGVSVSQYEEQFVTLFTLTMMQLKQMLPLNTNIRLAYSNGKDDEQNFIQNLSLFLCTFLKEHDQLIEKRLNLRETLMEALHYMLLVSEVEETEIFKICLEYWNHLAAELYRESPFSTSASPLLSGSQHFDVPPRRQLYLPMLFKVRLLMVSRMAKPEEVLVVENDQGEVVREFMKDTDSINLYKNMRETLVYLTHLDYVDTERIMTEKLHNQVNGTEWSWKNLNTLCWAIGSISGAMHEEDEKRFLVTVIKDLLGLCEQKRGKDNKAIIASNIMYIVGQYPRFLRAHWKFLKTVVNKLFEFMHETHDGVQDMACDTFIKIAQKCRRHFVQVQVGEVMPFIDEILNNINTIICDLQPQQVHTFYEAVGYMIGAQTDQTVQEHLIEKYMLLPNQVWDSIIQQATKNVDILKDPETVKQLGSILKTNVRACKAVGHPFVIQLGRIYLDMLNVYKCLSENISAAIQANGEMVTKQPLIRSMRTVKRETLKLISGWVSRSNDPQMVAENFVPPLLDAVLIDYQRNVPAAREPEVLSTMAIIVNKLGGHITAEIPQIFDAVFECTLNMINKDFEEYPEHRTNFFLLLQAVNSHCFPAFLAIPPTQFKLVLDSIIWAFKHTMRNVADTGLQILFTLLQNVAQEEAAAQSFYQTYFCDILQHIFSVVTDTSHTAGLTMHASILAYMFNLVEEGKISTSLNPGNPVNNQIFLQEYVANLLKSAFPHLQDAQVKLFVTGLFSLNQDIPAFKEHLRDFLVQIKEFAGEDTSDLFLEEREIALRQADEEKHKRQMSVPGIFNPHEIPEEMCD

[2] = molecular target: T2, untagged LaminB1 (human, UniProt P20700 1-586); test: as above; conditions: both partners purified
T2 construct: Lamin B1, human, subcloned from mTagRFP-hLaminB1 into the Intein-pMXB10 vector between NdeI and XhoI; Cloning through the XhoI site may leave a few vector residues at the C-terminus after the intein is cut off (surmise); also called recombinant LaminB1; LaminB1(PMXB10); source: E. coli SHuffle (C3026), purified (chitin resin, released with 50 mM DTT)
T2 sequence (looked up): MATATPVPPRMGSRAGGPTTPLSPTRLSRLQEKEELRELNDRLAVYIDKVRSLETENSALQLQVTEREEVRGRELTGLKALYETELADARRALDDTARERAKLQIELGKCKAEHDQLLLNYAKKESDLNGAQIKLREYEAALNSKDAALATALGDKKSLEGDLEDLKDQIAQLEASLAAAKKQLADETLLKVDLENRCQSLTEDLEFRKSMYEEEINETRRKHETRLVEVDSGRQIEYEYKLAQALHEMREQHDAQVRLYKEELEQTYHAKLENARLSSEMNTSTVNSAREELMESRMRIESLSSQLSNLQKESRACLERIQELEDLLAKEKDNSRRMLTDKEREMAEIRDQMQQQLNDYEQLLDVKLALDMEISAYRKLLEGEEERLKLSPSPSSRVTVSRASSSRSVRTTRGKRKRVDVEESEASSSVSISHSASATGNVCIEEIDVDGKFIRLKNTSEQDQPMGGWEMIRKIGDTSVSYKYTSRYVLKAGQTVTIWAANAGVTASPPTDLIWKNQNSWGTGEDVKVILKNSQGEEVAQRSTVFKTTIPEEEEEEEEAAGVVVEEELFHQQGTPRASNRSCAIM

- binding result [1]: binds
- binding result [2]: binds
B1: MBP-45-532-Jacob (domain or fragment, rat, UniProt Q9EPI6 45-532, looked up)
chain: DHLLADAYSGHEGSPEMQPAPHNKRRLSLVSNGRYEGSISDEAVSGKTATEGPQPRVYTISREPALLPGSEAEAIELAVVKGRRQRERHPHHHSQPLRASPGSSREDISRPCQSWAGSRQGSKECPGCAKLVPGPSPRAFGLEQPPLPEASGRHKKLERMYSVDGVSDDVPIRTWFPKENPFSFQTATTTMQAISVFRGYAERKRRKRENDSASVIQRNFRKHLRMVGSRRVKAQTFAERRERSFSRSWSDPTPMKADTSHDSRDSSDLQSSHCTLDEACEDLDWDTEKGLEATACDTEGFLPPKVMLISSKVPKAEYIPTIIRRDDPSIIPILYDHEHATFEDILEEIEKKLNIYHKGAKIWKMLIFCQGGPGHLYLLKNKVATFAKVEKEEDMIHFWKRLSRLMSKVNPEPNVIHIMGCYILGNPNGEKLFQNLRTLMTPYKVTFESPLELSAQGKQMIETYFDFRLYRLWKSRQHSKLLDFDDVL
notes: Jacob (Nsmf), residues 45-532, truncated for protein stability; also called amylose-MBP-45-532-Jacob; Jacob fused to MBP; source: E. coli SHuffle (C3026), pMAL vector, coupled to amylose resin
